# In the nanobody polyreactivity screen of Harvey et al. (2022):
# Experiment: yeast display, Sf9 membrane polyspecificity reagent, FACS + sequencing; frameworks hold sequencing errors
# Method in brief: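 A synthetic nanobody library was expressed on Saccharomyces cerevisiae BJ5465 by galactose induction for 36–48 hours. The library was stained for 1 hour at 4 °C with 10% biotinylated, detergent-solubilized Sf9 membrane reagent and enriched with streptavidin microbeads before FACS. Low and high (top ~1%) gates were set on anti-HA fluorescence for expression and streptavidin fluorescence for reagent binding, and each polyreactivity label reflects the gate of origin.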
row,Sequence,polyreactivity (PSR sort gate)
1,QVQLVESGGGLVQAGGSLRLSCAASGIISGDYAMGWYRQAPGKERELVARITSGDSTNYADSVKGRFTISRDNAKNTVYLQMNSLNPEDTAVYYCAADRVWAYWTYGYWGQGTQVTVSS,low polyreactivity
2,QFQLVESGGGVVQAGGSLRLSCAASGSIIYVNAMGWYRQAPGKERELVAAINYSGDSTYYADSVKGRFTISRDNAKNTVYLQMNSLKPEDTAVYYCAADIYVYYAPVYQYYWYDSWGQGTQVTVSS,high polyreactivity
3,QVQLVESGGGLVQAGGSLRLSCAASGRIFYGYAMGWYRQAPGKERELVAAIDWSGGSTYADSVKGRFTISRDNAKNTVYLQMNSLKPEDTAVYYCATDWVTSQQPYYWIYEYWGQGTQVTVSS,low polyreactivity
4,QVQLVESGGGLVQAGGSLRLSCAASGFIFYSYAMGWYRQAPGKERELVAAISWSGGRTYYADSVKGRFTISRDNAKNTVYLQMNSLKPEDTAVYYCNADDYSFSFTVPYYIEYVYWGQGTQVTVSS,high polyreactivity
5,QVHLVESGGGLVQAGGSLRLSCAASGRTFSRYAMGWYRQAPGKERELVATITRGGSTNYADSVKGRFTISRDNAKNTVYLQMNSLKPEDTAVYYCNAASFRYQGTLNHFYYWGQGTQVTVSS,low polyreactivity
6,QVQLEESGGGLVQAGGSLRLSCAASGFTFAYYAMGWYRQAPGKERELVAGISWRGGRTYYADSVKGRFTISRDNAKNTVYLQMNSLKPEDTAVYYCNARNSYRPGRGYDYGGQGTQVTVSS,high polyreactivity
7,QVQLVETGGCLVQAGGSLRLSCAASGFIFYIYAMGWYRQAPGKERELVAAITSGGSTYYADSVKGRFTITRDNAKNTVYLQMNSLKPDDTAVYYCASESYYGYDYWGQGTQVTVSS,low polyreactivity
8,QVQLVESGGGLVQAGGSLRLSCAASGLTFGPNALGWYRQAPGQERELVAAITTGGGTNYADSVKGRFTISRDNAKNTVYLQMNSLKPEDTAVYYCAADALDSPDGYDYCGQGTQVTVSS,low polyreactivity
9,QVQHVESGGGLVQAGGSLRLSCAASGRTFYRYAMGWSRQAPGKERELVASINRGGSTNYADSVKGRFTISRDNAKNTVYLQMNSLKPEDTAVYYCNADGYQAASRVYRRPKRYYSWGQGTQVTVSS,low polyreactivity
10,QVQLVESGGGLVQAGGSLRLSCAASGYTFGWYAMGWYRQAPGKERELVAAITSDGSTYYADSVKGRFTISRDNEKNTVYLQMNSLIPVDTAVYYCAADATFDSDWGQGTQVTVSS,low polyreactivity
11,QVQLVESGGGLVQAGGSLRLSCAASGLTSTDNAMGWYRQAPGKERELVAGITTGGSTYYADSVKGRFTISRDNAKNTVYLQMNSLKPEDTAVYYCNAPTYADTTYDYWGQGTQVTVSS,low polyreactivity
12,QVHLVESGGGLVQAGGSLRLSCAASGGIFLENAMGWYRQAPGKERELVAAISYNGGRTYYADSVKGRFTISRDNAKNTVYLQMNSLKPEDTAVYYCNAASPYYDSWGQGTQVTVSS,high polyreactivity
13,QVHLVESGGGLVQAGGSLRLSCAASGIIFEYNAMGWYRQAPGKERELVAAITSTDNTNYADSVKGRFTISRDNAKKTVYLQMNILIPEDTAVYYCNTDYWLSVVYAMDYWGQGTQVTVSS,low polyreactivity
14,QVQLVESGGGLVQAGGSLRLSCAASGSTFEGYAMGWYRQAPGKERELVAVISSGSITKYADSVKGRFTISRDNAKNTVYLQMNSLKPEDTAVYYCARKGGIIFASYLLGGYWGQGTQVTVSS,low polyreactivity
15,QVQLVESGGGLVQAGRSLRISCAASGYTFIYYPMGWYRPAPGKERELVATISIDGSTNYADSVKGRFTISRDNAKNTVYLQMNILKPEDTAVYYCNLERYEDYDYWGQGTQVTVSS,high polyreactivity
16,QVQLVESGGGLVQAGGSLRLSCAASGLTFGHYDMGWYRQAPGKERELVAAITWSGGSTYYADSVKGRFTISRDNAKNTVYLQMNSLKPEDTAVYYCNADQPILYYSYRGVGYDYWGQGTQVTVSS,high polyreactivity
17,QVQLVESGGGLVQAGGSLRLSCAASGRTFPYYAMGWYRQAPGKERELVAAISSSGGSTYYADSVKGRFTISRDNAKYTVYLQMNSLKPEDTAVYYCAAVYQFIKWGDRYEYWGQGTQVTVSS,high polyreactivity
18,QVQLVESGGGLVQAGGSLRLSCAASGFYNTMGWYRQAPGKERELVAAISTGGITNYADSVKGRFTISRDNAKNTVYVLMNSLKPEDTAVYYCPADGYSTVSSSYAYWGQGTQVTVSS,low polyreactivity
19,QVQLVESCGGLVQAGGSLRLSCAASGGTFGPYAMAWYRQAPGKEREFVARITGSGTRTYYADSVKGRFTISRDNAKNTVYLQMNSLKPEDTAVYYCATSHSRGSRGHDYWGQGTQVTVSS,low polyreactivity
20,QVQLVESGGGLVQAGCSLRLSCAASGLTSTANAMGWYRQAPGKERELVAGITTGGSTYYADSVKGRFTISRDNAKNTVYLQMISLKPEDTAVYYCNAPTYADTTYDYWGQGTQVTVSS,low polyreactivity
21,QVQLVESGGGLVQAGGSLRLSCASSVSTVKYAMGWYRQAPGKERELVAAISKSAGRTYYADSVKGRFTISRDNAKNTVYLQMNSLKPVDTAVYYCADRQSYYGDDYWGQCTQVTVSS,high polyreactivity
22,QVQLVESGGGLVQAGGSLRLTCADSGNILLFNAMGWYRQAPGKERELVATINQSGGRTYYADSVKGRFTISRDNAKNTVYLQMNSLKPEDTAVYYCNAERHPYYYWHTQRLDYWGQGTQVTVSS,low polyreactivity

row,Sequence,polyreactivity (PSR sort gate)
1,QVQLVESGGGLVQAGGSLRLSCAASGHIFFYYTMGWYRQAPGKERELVAGITIGGSTNYADSVKGRFTISRDNAKNTVYLEMNSLKPEDTAVYYCNVVKYVFFYSYWEYYYWGQGTQVTVSS,low polyreactivity
2,QVQLVESGGGLVQAGGSLRVSCAASGTTFPRNAMGWYRQAPGKERELVATITSAGGGTYYADSVKGRFTISRDNAKNSVYLQMNSLKPEDTAVYYCNADGPAGDAFDSWGQGTQVTVSS,low polyreactivity
3,QVQLVESGGGLVQAGGSLRLSCAASGRIFVRYAMGWYRQAPGKERELVAAISSGGRTHYADSVKGRFTISRDNAKNTVYLQRNSLKPEDTAVYDCATRLRSTTRYYYWGQGTQVTVSS,high polyreactivity
4,QVQLVESGGGLVQAGGSLRLSCAASGRIFFTYVMGWYRQAPGKERELVATIRVSGGSTYYADSVKGRFTISRDNAKNTVYLQMNSLKPEDTAVYYCAASGASWSLHYAGDYWGQGTQVTVSS,high polyreactivity
5,QVQLVESGGVLVQAGGIIRLSCAASGFIFVRYAMGWYRQAPGTERELVASIRSVGRTNYADSVKGRFTISRDNAKNTVYLQMNSLKPEDTAVYYCAAGYGSRSRPRGGYWGQGTQVTVSS,high polyreactivity
6,QVQLVESGGGLVQAGGSLRLSCAASGRIFRHYAMGWYRQAPGKERELVAAINWNGGSTYYADSVKGRFTISRDNAKNTVYLQMNSLKPEDTAVYYCAARYRYVRGMDYWGQGTQVTVSS,high polyreactivity
7,QVQLVESGGGLVQAGGSLRLSCAASGRTFTKYAMGWYRQAPGKERELVAAISRSGGSTYYADSVKGRFTISRDNAKNTVYLQMNSLKPEDTAVYYCAARGQYRYSFGDYSWGQGTQVTVSS,high polyreactivity
8,QVQLVESGGGLVQAGGSLRLSCAASGITFFGYAMGWYRQAPGKERELVAGISRSTGRTYYADSVKGRFTISRDNAKNTVYLHMNSLKPEDTAVYYCNAELYPWPGVVRYNYWGQGTQVTVSS,high polyreactivity
9,QVQLVESGGGLVQAGGSLRLSCAASGFTFHKNAMGWYRQAPGKERELVAAISRSGGRTYYADSVKGRFTISRDNAKNTVYLQMNSLKPEDTAVYYCNATPLLWAGYDYWGQGTQVTVSS,high polyreactivity
10,QVHLVESGGGLFQAGGSLRLIFAASGLIFYKNAMGWYRQAPGKERELVAISSSGGSTYYADSVKGRFTISRDNAKNSVYLQMHSLKPEDSAVYYCAARSRRYGGGYWGQGTQVTVSS,high polyreactivity
11,QVQLVESGGGLVQAGGSLRLSCAASGFTFAPNPMGWYRPAPGKEWELVAAITRSGGSTYYADSVKGRFTISRDNAKNTVYLQMYSLKPEDTAVYYCNAGRRGSGYVYWGQGTQVTVSS,high polyreactivity
12,QVQLVESGGGLLQAGGSLRLSCAASGFIFRFNAMGWYRQAPWTERELVAVIRWSSGSTYYADSVKGRFTISRDNAKNTVYLQMNSRKPEDTAVYYCAAVDDEYSIVWYDYWGQGTQVTVSA,low polyreactivity
13,PVQLVESGGGLVQAGGILRLSCAACGRIFQRNAMGWYRQAPGKERELVATITSRGGSTYYADSVKGRFTISRDNAKNTVYLQMNSLKPEDTAVYYCAADPRRYRGFGYVYGGFYYWGQGTQVTVSS,low polyreactivity
14,QVQLVESGGGLVQAGGSLRLSCATSGYTFTRYAMGWYRQAPGKERELVASISKTGGITYYADSVKGRFTISRDNAKNTVYLQMNSLKPEDTAVYYCNAVSKRRWAKYDYWGQGTQVTVSS,high polyreactivity
15,QVQLVESGGGLVQAGGSLRLSCAASGFTFSNYAMGWYRQAPGKERELVAAISFRTGRTYYADSVKGRFTISRDNAKNTVYLQMNSLKPEDTAVYYCAAVVQSSEPVEYDYWGQGTQVTVSS,high polyreactivity
16,QVQLVASGGGLVQAGGSLRLSFAASGRNFAYNTMGWYRQAPGKERELVAAITWSGGGKYYADSVKGRFTISRDNAKNTVYLHMNSLKPEDTAVYYCAVVYASPRARYRYYYWGQGTQVTVSS,low polyreactivity
17,QVQLVESGGGLVQARGSLRLSCAASGRILYSYAMGWYRQAPGKERELVASISLSGGRTYADSVKGRFTISRDNAKNTVYLQMNSLKPEDTAVYYCNDRIRTSRYLWPFDYWGQGTQVTVSS,high polyreactivity
18,QVQLVESGGGLVQAGGSLRLSCAASGFTFWDNAMGWYRQAPGKERELVAAISRRGGTTYYADSVKVRFTISRDNAKNTVYLQMNSLKPEDTAVYYCNKAFSLQIYATGMGYWGQGTQVTVSS,high polyreactivity
19,QVQLVESGGGLVQAGGSLRLSCAASGITFYRYVMGWYRQAPGKERELVAAISDSTGSTYYADSVKGRFTISRDNAKNTVYLQMNSLKPEDTAVYYCAAGWFYATYWRFYYWGQGTQVTVSS,low polyreactivity
20,QVQLVESGGGLVQAGGSLRLSCAASGRIFFRNAMGWYRQAPGKDRELVAAITWNGGSTYYADSVKGRFTISRDNAKNTVYLQMNSLKPEDTAVYYCATKTLSRTRTYYYWGQCTQVTVSS,high polyreactivity
21,QVQLVESGGGLVQAGGSLRLSCAASGSIFDDYAMGWSRQAPGKERELVAASSGGVSTNYADSVKGRFTISRDNAKNTVYLQMNSLKPEDTAVYYCNADYAGAYIHDYWGKGTQVTVSS,low polyreactivity
